Data published in paper PMC12808100 (2025).
Where two headings read alike, the source gives them in different places. Each block holds one binder with its values, some of them ahead of it. *: point of attachment. Biotin = O=C1N[C@H]2[C@H](CS[C@H]2CCCCC(=O)*)N1; TTDS = Trioxatridecan-succinamic acid linker

Legend:
[1] = biological target: His6-AviTag-MBP-TEV-POLE2 (human, UniProt P56282 1-527, biotin on the AviTag (BirA co-expressed, biotin in the medium)); experiment: nHU, apparent Kd
[2] = biological target: T1, catalytic subunit of DNA polymerase ε (POLE), endogenous (human (endogenous in Jurkat and in …, UniProt Q07864 1-2286)); experiment: nHU, apparent Kd
HA-POLE2 = HA-POLE2 (human, UniProt P56282 1-527); experiment: nHU, apparent Kd, f = 0.82
HA-MBP-POLE2 = HA-MBP-POLE2 (human, UniProt P56282 1-527); experiment: nHU in cell extract, apparent Kd, f = 0.37
[3] = biological target: T1, catalytic subunit of DNA polymerase ε …; experiment: nHU, apparent Kd; remark: listed apart in the source

Chain of His6-AviTag-MBP-TEV-POLE2 (P56282 whole entry): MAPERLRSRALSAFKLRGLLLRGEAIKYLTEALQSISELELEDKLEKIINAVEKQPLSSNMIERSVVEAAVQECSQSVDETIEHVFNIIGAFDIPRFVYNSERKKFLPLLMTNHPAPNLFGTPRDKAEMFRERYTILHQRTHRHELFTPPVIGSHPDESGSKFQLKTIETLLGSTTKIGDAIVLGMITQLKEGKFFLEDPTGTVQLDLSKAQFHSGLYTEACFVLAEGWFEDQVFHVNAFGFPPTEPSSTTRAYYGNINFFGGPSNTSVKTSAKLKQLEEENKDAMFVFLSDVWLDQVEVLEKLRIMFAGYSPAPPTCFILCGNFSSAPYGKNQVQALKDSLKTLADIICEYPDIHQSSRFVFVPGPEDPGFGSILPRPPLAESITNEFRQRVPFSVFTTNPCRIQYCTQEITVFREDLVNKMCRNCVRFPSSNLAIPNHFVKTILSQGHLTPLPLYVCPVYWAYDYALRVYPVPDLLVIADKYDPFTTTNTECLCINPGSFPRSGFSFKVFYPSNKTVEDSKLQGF
T1 sequence (Q07864 whole entry): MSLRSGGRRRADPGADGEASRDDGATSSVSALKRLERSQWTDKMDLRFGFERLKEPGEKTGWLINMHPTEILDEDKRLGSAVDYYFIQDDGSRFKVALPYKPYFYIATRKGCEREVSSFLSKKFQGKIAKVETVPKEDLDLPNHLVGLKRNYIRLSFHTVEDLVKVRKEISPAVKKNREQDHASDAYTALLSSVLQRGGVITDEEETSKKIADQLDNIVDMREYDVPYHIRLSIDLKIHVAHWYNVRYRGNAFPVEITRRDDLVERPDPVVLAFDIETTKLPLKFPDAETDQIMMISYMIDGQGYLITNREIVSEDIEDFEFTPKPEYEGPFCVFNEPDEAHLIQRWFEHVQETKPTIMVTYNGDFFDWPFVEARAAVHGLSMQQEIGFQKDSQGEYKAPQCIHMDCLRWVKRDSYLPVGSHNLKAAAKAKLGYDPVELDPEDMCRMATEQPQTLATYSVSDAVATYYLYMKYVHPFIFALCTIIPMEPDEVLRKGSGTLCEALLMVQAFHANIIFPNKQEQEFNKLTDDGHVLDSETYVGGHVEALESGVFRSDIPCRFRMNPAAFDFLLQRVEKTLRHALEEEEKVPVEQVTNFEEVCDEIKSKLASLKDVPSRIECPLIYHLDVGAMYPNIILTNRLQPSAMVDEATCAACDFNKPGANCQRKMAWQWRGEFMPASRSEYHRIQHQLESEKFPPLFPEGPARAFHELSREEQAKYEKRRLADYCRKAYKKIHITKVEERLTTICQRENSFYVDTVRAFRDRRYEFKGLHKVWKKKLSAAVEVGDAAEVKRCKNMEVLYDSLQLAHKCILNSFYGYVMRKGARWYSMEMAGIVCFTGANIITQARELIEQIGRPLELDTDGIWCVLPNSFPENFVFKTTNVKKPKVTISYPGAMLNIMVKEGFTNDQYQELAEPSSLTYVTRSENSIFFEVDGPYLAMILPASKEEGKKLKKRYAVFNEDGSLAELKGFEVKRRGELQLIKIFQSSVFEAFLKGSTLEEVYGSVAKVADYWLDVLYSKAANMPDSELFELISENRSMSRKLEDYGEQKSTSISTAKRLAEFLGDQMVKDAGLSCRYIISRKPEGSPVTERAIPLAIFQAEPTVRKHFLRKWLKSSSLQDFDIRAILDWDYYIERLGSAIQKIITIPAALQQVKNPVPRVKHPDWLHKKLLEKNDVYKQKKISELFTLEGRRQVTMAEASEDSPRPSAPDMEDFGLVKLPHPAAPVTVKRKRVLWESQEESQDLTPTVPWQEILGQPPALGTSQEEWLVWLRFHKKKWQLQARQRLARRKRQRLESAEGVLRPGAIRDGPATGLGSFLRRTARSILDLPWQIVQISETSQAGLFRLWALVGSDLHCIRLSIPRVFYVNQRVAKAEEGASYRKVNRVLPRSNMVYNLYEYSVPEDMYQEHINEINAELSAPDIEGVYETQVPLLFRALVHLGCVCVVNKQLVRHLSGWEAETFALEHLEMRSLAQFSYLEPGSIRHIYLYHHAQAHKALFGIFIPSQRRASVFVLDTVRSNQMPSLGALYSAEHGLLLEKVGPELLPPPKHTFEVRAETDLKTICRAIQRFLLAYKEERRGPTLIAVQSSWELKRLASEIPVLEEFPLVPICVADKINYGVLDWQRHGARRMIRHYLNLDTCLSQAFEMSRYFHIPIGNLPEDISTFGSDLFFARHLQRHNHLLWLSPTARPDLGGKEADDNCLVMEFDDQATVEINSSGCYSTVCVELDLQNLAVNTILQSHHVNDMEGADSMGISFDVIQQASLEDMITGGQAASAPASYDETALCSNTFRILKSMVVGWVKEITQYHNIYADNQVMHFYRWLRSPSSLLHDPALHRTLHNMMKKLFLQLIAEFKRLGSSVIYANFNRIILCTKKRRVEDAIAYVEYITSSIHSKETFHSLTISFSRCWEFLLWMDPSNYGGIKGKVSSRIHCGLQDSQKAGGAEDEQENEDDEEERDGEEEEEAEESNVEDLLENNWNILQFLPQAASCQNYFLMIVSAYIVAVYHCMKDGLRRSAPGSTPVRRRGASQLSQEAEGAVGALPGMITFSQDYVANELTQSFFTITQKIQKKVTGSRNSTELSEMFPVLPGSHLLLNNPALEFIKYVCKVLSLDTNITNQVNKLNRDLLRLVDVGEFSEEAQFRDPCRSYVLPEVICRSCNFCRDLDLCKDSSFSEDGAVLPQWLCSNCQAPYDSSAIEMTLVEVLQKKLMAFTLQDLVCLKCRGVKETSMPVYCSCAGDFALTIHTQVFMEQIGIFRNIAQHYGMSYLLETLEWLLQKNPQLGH
Chain of HA-MBP-POLE2 (P56282 whole entry): as the sequence (P56282 whole entry) above
Chain of HA-POLE2 (P56282 whole entry): as above

B1: HA-ERCC6L, full length, intact NPF motif (natural protein)
chain: MEASRRFPEAEALSPEQAAHYLRYVKEAKEATKNGDLEEAFKLFNLAKDIFPNEKVLSRIQKIQEALEELAEQGDDEFTDVCNSGLLLYRELHNQLFEHQKEGIAFLYSLYRDGRKGGILADDMGLGKTVQIIAFLSGMFDASLVNHVLLIMPTNLINTWVKEFIKWTPGMRVKTFHGPSKDERTRNLNRIQQRNGVIITTYQMLINNWQQLSSFRGQEFVWDYVILDEAHKIKTSSTKSAICARAIPASNRLLLTGTPIQNNLQELWSLFDFACQGSLLGTLKTFKMEYENPITRAREKDATPGEKALGFKISENLMAIIKPYFLRRTKEDVQKKKSSNPEARLNEKNPDVDAICEMPSLSRKNDLIIWIRLVPLQEEIYRKFVSLDHIKELLMETRSPLAELGVLKKLCDHPRLLSARACCLLNLGTFSAQDGNEGEDSPDVDHIDQVTDDTLMEESGKMIFLMDLLKRLRDEGHQTLVFSQSRQILNIIERLLKNRHFKTLRIDGTVTHLLEREKRINLFQQNKDYSVFLLTTQVGGVGLTLTAATRVVIFDPSWNPATDAQAVDRVYRIGQKENVVVYRLITCGTVEEKIYRRQVFKDSLIRQTTGEKKNPFRYFSKQELRELFTIEDLQNSVTQLQLQSLHAAQRKSDIKLDEHIAYLQSLGIAGISDHDLMYTCDLSVKEELDVVEESHYIQQRVQKAQFLVEFESQNKEFLMEQQRTRNEGAWLREPVFPSSTKKKCPKLNKPQPQPSPLLSTHHTQEEDISSKMASVVIDDLPKEGEKQDLSSIKVNVTTLQDGKGTGSADSIATLPKGFGSVEELCTNSSLGMEKSFATKNEAVQKETLQEGPKQEALQEDPLESFNYVLSKSTKADIGPNLDQLKDDEILRHCNPWPIISITNESQNAESNVSIIEIADDLSASHSALQDAQASEAKLEEEPSASSPQYACDFNLFLEDSADNRQNFSSQSLEHVEKENSLCGSAPNSRAGFVHSKTCLSWEFSEKDDEPEEVVVKAKIRSKARRIVSDGEDEDDSFKDTSSINPFNTSLFQFSSVKQFDASTPKNDISPPGRFFSSQIPSSVNKSMNSRRSLASRRSLINMVLDHVEDMEERLDDSSEAKGPEDYPEEGVEESSGEASKYTEEDPSGETLSSENKSSWLMTSKPSALAQETSLGAPEPLSGEQLVGSPQDKAAEATNDYETLVKRGKELKECGKIQEALNCLVKALDIKSADPEVMLLTLSLYKQLNNN
Kd [1]: 2400 nM

B2: NPF motif peptide of POLA1 (residues 177-206) (peptide)
peptide: PVMILKKKRSIGASPNPFSVHTATAVPSGK
HELM: PEPTIDE1{[O=C1N[C@H]2[C@H](CS[C@H]2CCCCC(=O)[*:2])N1].[O=C(CCCCCN[*:1])[*:2]].P.V.M.I.L.K.K.K.R.S.I.G.A.S.P.N.P.F.S.V.H.T.A.T.A.V.P.S.G.K.[am]}$$$$V2.0
SMILES: CC[C@H](C)[C@H](NC(=O)[C@H](CO)NC(=O)[C@H](CCCNC(=N)N)NC(=O)[C@H](CCCCN)NC(=O)[C@H](CCCCN)NC(=O)[C@H](CCCCN)NC(=O)[C@H](CC(C)C)NC(=O)[C@@H](NC(=O)[C@H](CCSC)NC(=O)[C@@H](NC(=O)[C@@H]1CCCN1C(=O)CCCCCNC(=O)CCCC[C@@H]1SC[C@@H]2NC(=O)N[C@@H]21)C(C)C)[C@@H](C)CC)C(=O)NCC(=O)N[C@@H](C)C(=O)N[C@@H](CO)C(=O)N1CCC[C@H]1C(=O)N[C@@H](CC(N)=O)C(=O)N1CCC[C@H]1C(=O)N[C@@H](Cc1ccccc1)C(=O)N[C@@H](CO)C(=O)N[C@H](C(=O)N[C@@H](Cc1c[nH]cn1)C(=O)N[C@H](C(=O)N[C@@H](C)C(=O)N[C@H](C(=O)N[C@@H](C)C(=O)N[C@H](C(=O)N1CCC[C@H]1C(=O)N[C@@H](CO)C(=O)NCC(=O)N[C@@H](CCCCN)C(N)=O)C(C)C)[C@@H](C)O)[C@@H](C)O)C(C)C
Kd [2]: 2500 nM

Binder: {Biotin-TTDS}-GPAAARRNPFARLDNRPR-NH2 [NPF motif peptide of DONSON (residues 71-88)]
Kd (HA-POLE2): 520 nM | Kd (HA-MBP-POLE2): 1300 nM

B3: HA-WDHD1, full length, intact NPF motif (natural protein)
chain: MPATRKPMRYGHTEGHTEVCFDDSGSFIVTCGSDGDVRIWEDLDDDDPKFINVGEKAYSCALKSGKLVTAVSNNTIQVHTFPEGVPDGILTRFTTNANHVVFNGDGTKIAAGSSDFLVKIVDVMDSSQQKTFRGHDAPVLSLSFDPKDIFLASASCDGSVRVWQISDQTCAISWPLLQKCNDVINAKSICRLAWQPKSGKLLAIPVEKSVKLYRRESWSHQFDLSDNFISQTLNIVTWSPCGQYLAAGSINGLIIVWNVETKDCMERVKHEKGYAICGLAWHPTCGRISYTDAEGNLGLLENVCDPSGKTSSSKVSSRVEKDYNDLFDGDDMSNAGDFLNDNAVEIPSFSKGIINDDEDDEDLMMASGRPRQRSHILEDDENSVDISMLKTGSSLLKEEEEDGQEGSIHNLPLVTSQRPFYDGPMPTPRQKPFQSGSTPLHLTHRFMVWNSIGIIRCYNDEQDNAIDVEFHDTSIHHATHLSNTLNYTIADLSHEAILLACESTDELASKLHCLHFSSWDSSKEWIIDLPQNEDIEAICLGQGWAAAATSALLLRLFTIGGVQKEVFSLAGPVVSMAGHGEQLFIVYHRGTGFDGDQCLGVQLLELGKKKKQILHGDPLPLTRKSYLAWIGFSAEGTPCYVDSEGIVRMLNRGLGNTWTPICNTREHCKGKSDHYWVVGIHENPQQLRCIPCKGSRFPPTLPRPAVAILSFKLPYCQIATEKGQMEEQFWRSVIFHNHLDYLAKNGYEYEESTKNQATKEQQELLMKMLALSCKLEREFRCVELADLMTQNAVNLAIKYASRSRKLILAQKLSELAVEKAAELTATQVEEEEEEEDFRKKLNAGYSNTATEWSQPRFRNQVEEDAEDSGEADDEEKPEIHKPGQNSFSKSTNSSDVSAKSGAVTFSSQGRVNPFKVSASSKEPAMSMNSARSTNILDNMGKSSKKSTALSRTTNNEKSPIIKPLIPKPKPKQASAASYFQKRNSQTNKTEEVKEENLKNVLSETPAICPPQNTENQRPKTGFQMWLEENRSNILSDNPDFSDEADIIKEGMIRFRVLSTEERKVWANKAKGETASEGTEAKKRKRVVDESDETENQEEKAKENLNLSKKQKPLDFSTNQKLSAFAFKQE
Kd [1]: 70 nM

B5: HA-TTF2, full length, intact NPF motifs (natural protein)
chain: MEEVRCPEHGTFCFLKTGVRDGPNKGKSFYVCRADTCSFVRATDIPVSHCLLHEDFVVELQGLLLPQDKKEYRLFFRCIRSKAEGKRWCGSIPWQDPDSKEHSVSNKSQHASETFHHSSNWLRNPFKVLDKNQEPALWKQLIKGEGEEKKADKKQREKGDQLFDQKKEQKPEMMEKDLSSGLVPKKKQSVVQEKKQEEGAEIQCEAETGGTHKRDFSEIKSQQCQGNELTRPSASSQEKSSGKSQDVQRESEPLREKVTQLLPQNVHSHNSISKPQKGGPLNKEYTNWEAKETKAKDGPSIQATQKSLPQGHFQERPETHSVPAPGGPAAQAAPAAPGLSLGEGREAATSSDDEEEDDVVFVSSKPGSPLLFDSTLDLETKENLQFPDRSVQRKVSPASGVSKKVEPSDPVARRVYLTTQLKQKKSTLASVNIQALPDKGQKLIKQIQELEEVLSGLTLSPEQGTNEKSNSQVPQQSHFTKTTTGPPHLVPPQPLPRRGTQPVGSLELKSACQVTAGGSSQCYRGHTNQDHVHAVWKITSEAIGQLHRSLESCPGETVVAEDPAGLKVPLLLHQKQALAWLLWRESQKPQGGILADDMGLGKTLTMIALILTQKNQEKKEEKEKSTALTWLSKDDSCDFTSHGTLIICPASLIHHWKNEVEKRVNSNKLRVYLYHGPNRDSRARVLSTYDIVITTYSLVAKEIPTNKQEAEIPGANLNVEGTSTPLLRIAWARIILDEAHNVKNPRVQTSIAVCKLQACARWAVTGTPIQNNLLDMYSLLKFLRCSPFDEFNLWRSQVDNGSKKGGERLSILTKSLLLRRTKDQLDSTGRPLVILPQRKFQLHHLKLSEDEETVYNVFFARSRSALQSYLKRHESRGNQSGRSPNNPFSRVALEFGSEEPRHSEAADSPRSSTVHILSQLLRLRQCCCHLSLLKSALDPMELKGEGLVLSLEEQLSALTLSELRDSEPSSTVSLNGTFFKMELFEGMRESTKISSLLAELEAIQRNSASQKSVIVSQWTNMLKVVALHLKKHGLTYATIDGSVNPKQRMDLVEAFNHSRGPQVMLISLLAGGVGLNLTGGNHLFLLDMHWNPSLEDQACDRIYRVGQQKDVVIHRFVCEGTVEEKILQLQEKKKDLAKQVLSGSGESVTKLTLADLRVLFGI
Kd [1]: 300 nM

Further lines, results first:

Kd [3]: 720 nM
B4: NPF motif peptide of TTF2 (residues 116-143) (peptide)
peptide: HHSSNWLRNPFKVLDKNQEPALWKQLIK
HELM: PEPTIDE1{[O=C1N[C@H]2[C@H](CS[C@H]2CCCCC(=O)[*:2])N1].[O=C(CCCCCN[*:1])[*:2]].H.H.S.S.N.W.L.R.N.P.F.K.V.L.D.K.N.Q.E.P.A.L.W.K.Q.L.I.K.[am]}$$$$V2.0
SMILES: CC[C@H](C)[C@H](NC(=O)[C@H](CC(C)C)NC(=O)[C@H](CCC(N)=O)NC(=O)[C@H](CCCCN)NC(=O)[C@H](Cc1c[nH]c2ccccc12)NC(=O)[C@H](CC(C)C)NC(=O)[C@H](C)NC(=O)[C@@H]1CCCN1C(=O)[C@H](CCC(=O)O)NC(=O)[C@H](CCC(N)=O)NC(=O)[C@H](CC(N)=O)NC(=O)[C@H](CCCCN)NC(=O)[C@H](CC(=O)O)NC(=O)[C@H](CC(C)C)NC(=O)[C@@H](NC(=O)[C@H](CCCCN)NC(=O)[C@H](Cc1ccccc1)NC(=O)[C@@H]1CCCN1C(=O)[C@H](CC(N)=O)NC(=O)[C@H](CCCNC(=N)N)NC(=O)[C@H](CC(C)C)NC(=O)[C@H](Cc1c[nH]c2ccccc12)NC(=O)[C@H](CC(N)=O)NC(=O)[C@H](CO)NC(=O)[C@H](CO)NC(=O)[C@H](Cc1c[nH]cn1)NC(=O)[C@H](Cc1c[nH]cn1)NC(=O)CCCCCNC(=O)CCCC[C@@H]1SC[C@@H]2NC(=O)N[C@@H]21)C(C)C)C(=O)N[C@@H](CCCCN)C(N)=O

Kd [3]: 14000 nM
B6: NPF motif peptide of WDHD1 (residues 906-924) (peptide)
peptide: SSQGRVNPFKVSASSKEPA
HELM: PEPTIDE1{[O=C1N[C@H]2[C@H](CS[C@H]2CCCCC(=O)[*:2])N1].[O=C(CCCCCN[*:1])[*:2]].S.S.Q.G.R.V.N.P.F.K.V.S.A.S.S.K.E.P.A.[am]}$$$$V2.0
SMILES: CC(C)[C@H](NC(=O)[C@H](CCCCN)NC(=O)[C@H](Cc1ccccc1)NC(=O)[C@@H]1CCCN1C(=O)[C@H](CC(N)=O)NC(=O)[C@@H](NC(=O)[C@H](CCCNC(=N)N)NC(=O)CNC(=O)[C@H](CCC(N)=O)NC(=O)[C@H](CO)NC(=O)[C@H](CO)NC(=O)CCCCCNC(=O)CCCC[C@@H]1SC[C@@H]2NC(=O)N[C@@H]21)C(C)C)C(=O)N[C@@H](CO)C(=O)N[C@@H](C)C(=O)N[C@@H](CO)C(=O)N[C@@H](CO)C(=O)N[C@@H](CCCCN)C(=O)N[C@@H](CCC(=O)O)C(=O)N1CCC[C@H]1C(=O)N[C@@H](C)C(N)=O
